Data as given in publication PMC10502657 (Advanced Science, 2023).

What was measured:
Flag–p53 = biological target: T1, Flag–p53 (UniProt P04637 1-393); assay: pull-down; GST-fusion proteins immobilised on glutathione beads incubated with purified Flag-tagged proteins in 50 mM Tris-HCl pH 7.4, 150 mM NaCl, 0.5% Triton X-100 for 4 h at 4 °C; western blot; conditions: both partners purified
T1 construct: p53; also called Flag-tagged p53; source: HEK293T, transfected, in lysate

Flag–USP7 = biological target: T2, Flag–USP7 (UniProt Q93009 1-1102); assay: as above; conditions: both partners purified
T2 construct: ubiquitin-specific protease 7 (USP7); also called Flag-tagged USP7; source: HEK293T, transfected, in lysate
T2 sequence (Q93009 whole entry): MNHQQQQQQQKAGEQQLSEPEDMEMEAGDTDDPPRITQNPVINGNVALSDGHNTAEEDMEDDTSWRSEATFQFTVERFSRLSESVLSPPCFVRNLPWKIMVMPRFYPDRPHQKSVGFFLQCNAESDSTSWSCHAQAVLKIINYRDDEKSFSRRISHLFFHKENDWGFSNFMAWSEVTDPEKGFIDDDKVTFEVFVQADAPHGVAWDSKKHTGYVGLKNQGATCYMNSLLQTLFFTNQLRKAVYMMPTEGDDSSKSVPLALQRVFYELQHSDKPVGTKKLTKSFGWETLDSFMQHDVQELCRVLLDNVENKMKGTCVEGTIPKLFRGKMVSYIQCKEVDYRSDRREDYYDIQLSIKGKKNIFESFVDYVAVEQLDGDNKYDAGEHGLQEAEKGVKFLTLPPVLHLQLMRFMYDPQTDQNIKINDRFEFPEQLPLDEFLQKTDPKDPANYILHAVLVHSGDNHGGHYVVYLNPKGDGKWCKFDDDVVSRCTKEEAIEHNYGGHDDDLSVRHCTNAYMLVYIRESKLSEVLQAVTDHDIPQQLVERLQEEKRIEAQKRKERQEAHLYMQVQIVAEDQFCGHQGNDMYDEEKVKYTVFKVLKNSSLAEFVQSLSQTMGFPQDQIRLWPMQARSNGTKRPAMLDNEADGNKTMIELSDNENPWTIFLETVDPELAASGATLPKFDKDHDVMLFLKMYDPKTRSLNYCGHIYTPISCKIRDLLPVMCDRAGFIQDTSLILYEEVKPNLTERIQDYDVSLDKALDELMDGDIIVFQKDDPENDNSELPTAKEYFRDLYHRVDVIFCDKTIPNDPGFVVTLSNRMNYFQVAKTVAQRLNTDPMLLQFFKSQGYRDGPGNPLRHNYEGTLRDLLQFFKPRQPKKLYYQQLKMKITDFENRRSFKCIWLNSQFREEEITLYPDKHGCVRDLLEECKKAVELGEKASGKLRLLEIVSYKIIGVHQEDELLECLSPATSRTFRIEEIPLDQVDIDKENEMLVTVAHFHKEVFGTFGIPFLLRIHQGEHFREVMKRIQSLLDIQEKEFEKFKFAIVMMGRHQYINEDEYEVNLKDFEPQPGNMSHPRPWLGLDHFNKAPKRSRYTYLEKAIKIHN

T1 sequence (P04637 whole entry, the tested form may be a part): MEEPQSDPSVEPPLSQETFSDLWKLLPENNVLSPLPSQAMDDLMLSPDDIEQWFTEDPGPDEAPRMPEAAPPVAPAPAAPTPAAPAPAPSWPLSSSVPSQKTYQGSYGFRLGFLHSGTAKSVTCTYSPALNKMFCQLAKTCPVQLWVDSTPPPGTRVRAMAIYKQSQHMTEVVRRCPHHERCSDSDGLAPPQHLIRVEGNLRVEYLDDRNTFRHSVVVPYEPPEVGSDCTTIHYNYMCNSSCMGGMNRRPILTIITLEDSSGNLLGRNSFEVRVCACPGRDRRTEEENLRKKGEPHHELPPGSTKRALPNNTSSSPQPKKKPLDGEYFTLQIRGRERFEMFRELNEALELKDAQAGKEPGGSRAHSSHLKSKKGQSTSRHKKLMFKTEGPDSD

binding result (Flag–p53): binds | binding result (Flag–USP7): binds
B1: GST–MLF2 (natural protein, UniProt Q15773 1-248, looked up)
chain: MFRFMRDVEPEDPMFLMDPFAIHRQHMSRMLSGGFGYSPFLSITDGNMPGTRPASRRMQQAGAVSPFGMLGMSGGFMDMFGMMNDMIGNMEHMTAGGNCQTFSSSTVISYSNTGDGAPKVYQETSEMRSAPGGIRETRRTVRDSDSGLEQMSIGHHIRDRAHILQRSRNHRTGDQEERQDYINLDESEAAAFDDEWRRETSRFRQQRPLEFRRLESSGAGGRRAEGPPRLAIQGPEDSPSRQSRRYDW
notes: myeloid leukemia factor 2 (MLF2); also called glutathione-S-transferase (GST) tagged MLF2
